Data taken from patent US20250295587A1, “COMPLEX LIPID NANOPARTICLES ENCAPSULATING POLYPEPTIDES AND USES THEREOF” (SAIL BIOMEDICINES, INC., priority 2022, published 2025).

Assays:
[1] = Particle loading / insulin encapsulation efficiency by bicinchoninic acid assay (BCA); assay type: physicochemical; conditions: insulin concentration of the dosed preparation
Procedure: Next, the mixture of re-hydrated particles containing the active biomolecule was purified and separated from the free active biomolecule not loaded in the particles by a dialysis step overnight. The dialysis was performed in a 100 kD dialysis membrane in the buffer used for the formulation process as discussed above, at a buffer volume at least 2000× the volume of the solution to be purified (e.g., 0.1M sodium bicarbonate, pH 8.2, buffer). The dialysate was concentrated in centrifugal unit to the preferred concentration. Alternatively, the purification and separation step could be performed with tangential flow filtration (TFF). The described purification steps are optional and were not performed for all formulations. Particle morphological characteristics were analyzed with dynamic light scattering methods. Particle loading efficiency was quantified with a bicinchoninic acid assay (BCA).
The insulin encapsulation efficiency of the complex lipid formulations (the amount of insulin that was trapped to the vesicles) was also characterized, and the results ranged consistently from 25-35%. Similar characterizations were measured for other formulations of complex lipid particles.

[2] = design: species or system mice; conditions: mouse, in vivo
Procedure: The animals used were C57BL6 female 8-week-old mice (Jax #0664). […] Mice were weighed, and a pre-bleed sample was taken (through tail vein, retro-orbital or submandibular means). The mice were fasted overnight before being dosed via intracolonic administration with 50 uL of a given insulin-loaded complex lipid formulation (Table 8). Non-terminal bleeds at 30 minutes and 60 minutes post-dose were taken, alternating routes of collection. A terminal bleed at 120 minutes post-dose via cardiac puncture was also taken. Whole blood samples from the pre-bleed, 30 minute, 60 minute, and 120 minute bleeds were processed for plasma then stored at −80° C. Insulin levels were quantified by MSD assay. Exposure to the active biomolecule (e.g. insulin) was measured as area under the curve (AUC) of the four measured timepoints, and dose was measured as BCA*dose volume (0.05 mL). Therefore, the data in Table 9 for each mouse is shown as systemic levels of insulin (or exposure normalized by dose). […] Unexpectedly, 20 of 22 (>90%) different complex lipid formulations out-performed free IC insulin.

## Control: free insulin given by intracolonic (IC) administration, not encapsulated
[1]
  BCA (Insulin mg/mL): Avg = 1.16 mg/mL
[2]
  Systemic levels of insulin (exposure AUC normalized by dose), Avg: Avg = 290.1
